Experimental data published in patent publication US20260184815A1.
Numbering of substitutions follows the chain as printed. Values belong to the binder of their own block, whether it stands above or below them.

What was measured:
[1] = target: pKal catalytic domain Mutant 4 (human) (UniProt P03952); assay: equilibrium Ki,app, fluorogenic substrate, tight binding fit
[2] = target: pKal catalytic domain Mutant 4 (human) (UniProt P03952); assay: equilibrium Ki,app, enzyme inhibition with fluorogenic substrate, tight binding fit

Chain of pKal catalytic domain Mutant 4 (human) (P03952 391-638, change not shown): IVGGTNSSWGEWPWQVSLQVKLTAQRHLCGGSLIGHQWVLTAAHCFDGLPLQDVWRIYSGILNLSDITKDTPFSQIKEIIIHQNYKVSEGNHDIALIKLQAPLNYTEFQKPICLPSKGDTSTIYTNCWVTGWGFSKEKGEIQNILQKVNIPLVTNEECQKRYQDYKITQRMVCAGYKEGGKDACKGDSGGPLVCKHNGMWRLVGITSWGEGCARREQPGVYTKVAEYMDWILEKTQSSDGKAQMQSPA

B1: M35-G04 (antibody, V domains shown)
VH: EVQLLESGGGLVQPGGSLRLSCAASGFTFSYYHMSWVRQAPGKGLEWVSVISPSGGSTKYADSVKGRFTISRDNSKNTLYLQMNSLRAEDTAVYYCARGGSSDYAWGSYRRPYYFDYWGQGTLVTVSS
VL: DIQMTQSPATLSLSPGERATLSCRASQSVSSYLAWYQQKPGQAPRLLIYDASNRATGIPARFSGSGSGTDFTLTISSLEPEDFAVYYCQQRSNWPRGFTFGPGTKVDIK
- Ki [1]: 0.8 nM
- Ki [2]: 0.8 nM

B3: M6-D09 (antibody, V domains shown)
VH: EVQLLESGGGLVQPGGSLRLSCAASGFTFSFYYMVWVRQAPGKGLEWVSVIYPSGGITVYADSVKGRFTISRDNSKNTLYLQMNSLRAEDTAVYYCARDKWAVMPPYYYYAMDVWGQGTTVTVSS
VL: DIQMTQSPSSLSASVGDRVTITCRASQSIRNYLNWYQQKPGKAPNLLIYAASTLQSGVPARFSGSGSGTDFTLTISSLQPEDFATYYCQQLSGYPHTFGQGTKLEIK
- Ki [1]: 2.9 nM

B4: M06-D09 (antibody, V domains shown)
VH: B3 VH
VL: B3 VL
- Ki [2]: 2.9 nM

B5: X115-A03 (antibody, V domains shown)
VH: EVQLLESGGGLVQPGGSLRLSCAASGFTFSHYIMMWVRQAPGKGLEWVSGIYSSGGITVYADSVKGRFTISRDNSKNTLYLQMNSLRAEDTAVYYCAWRRIGVPRRDSFDMWGQGTMVTVSS
VL: DIQMTQSPSTLSASVGDRVTITCRASQSISSWLAWYQQKPGKAPKLLIYKASTLESGVPSRFSGSGSGTEFTLTISSLQPDDFATYYCQQYNTYWTFGQGTKVEIK
- Ki [1]: 0.13 nM
- Ki [2]: 0.13 nM

B6: X115-D01 (antibody, V domains shown)
VH: EVQLLESGGGLVQPGGSLRLSCAASGFTFSIYSMHWVRQAPGKGLEWVSSIYPSRGMTWYADSVKGRFTISRDNSKNTLYLQMNSLRAEDTAVYYCAYRRTGIPRRDAFDIWGQGTMVTVSS
VL: B5 VL
- Ki [1]: 0.12 nM
- Ki [2]: 0.12 nM

B10: X115-B07 (antibody, V domains shown)
VH: EVQLLESGGGLVQPGGSLRLSCAASGFTFSHYLMTWVRQAPGKGLEWVSYISPSGGHTIYADSVKGRFTISRDNSKNTLYLQMNSLRAEDTAVYYCAMVGQGIRGRSRTSYFAQWGQGTLVTVSS
VL: EIVLTQSPGTLSLSPGERATLSCRTSQFVNSNYLAWYQQKPGQAPRLLIYGASSRATGIPDRFSGSGSGTDFTLTISRLEPEDFAVYYCQQSSRTPWTFGQGTKVEIK
- Ki [1]: 0.14 nM
- Ki [2]: 0.14 nM

B11: M29-D09 (Fab, V domains shown)
VH: EVQLLESGGGLVQPGGSLRLSCAASGFTFSWYTMVWVRQAPGKGLEWVSYIYPSGGATFYADSVKGRFTISRDNSKNTLYLQMNSLRAEDTAVYYCAMGSYDYIWGFYSDHWGQGTLVTVSS
VL: QSALTQPPTVSVSPGQTARITCSGNKLGDKYVAWYQQKPGQSPMLVIYQDTKRPSRVSERFSGSNSANTATLSISGTQALDEADYYCQAWDSSIVIFGGGTRLTVL
- Ki [1]: 0.39 nM
- Ki [2]: 0.39 nM

Other lines, results leading:

- Ki [1]: 0.21 nM
- Ki [2]: 0.21 nM
B2: M145-D11 (Fab, V domains shown)
VH: EVQLLESGGGLVQPGGSLRLSCAASGFTFSHYRMSWVRQAPGKGLEWVSSIYPSGGRTVYADSVKGRFTISRDNSKNTLYLQMNSLRAEDTAVYYCAKDKFEWRLLFRGIGNDAFDIWGQGTMVTVSS
VL: QSVLTQPPSVSVSPGQTASITCSGDKLGDKYTSWYQQRPGQSPVLVIYQDIKRPSGIPERFSGSNSGNTATLTISGTQAMDEADYYCQAWDSPNARVFGSGTKVTVL

- Ki [1]: 0.1 nM
- Ki [2]: 0.1 nM
B7: X115-F02 (Fab, V domains shown)
VH: B5 VH with W98Y, S108E, M111I
VL: B5 VL

- Ki [1]: 0.3 nM
- Ki [2]: 0.3 nM
B8: X115-G04 (antibody, V domains shown)
VH: B5 VH with W98Y, I101T, S108E, M111I
VL: B5 VL

- Ki [1]: 0.25 nM
- Ki [2]: 0.25 nM
B9: DX-2922 (antibody, V domains shown)
VH: B10 VH with M98R, G100A, Q101R, R104A, G105A, A113D, Q114Y
VL: B10 VL
